# Several values for one entry are separate records, joined by “and”; a condition that tells them apart may be missing. Equal values may be shown once.
# B1: rPsaA: purified recombinant pneumococcal surface adhesin A, non-lipidated, donated by Aventis-Pasteur (protein)
# chain: CASGKKDTTSGQKLKVVATNSIIADITKNIAGDKIDLHSIVPIGQDPHEYEPLPEDVKKTSEADLIFYNGINLETGGNAWFTKLVENAKKTENKDYFAVSDGVDVIYLEGQNEKGKEDPHAWLNLENGIIFAKNIAKQLSAKDPNNKEFYEKNLKEYTDKLDKLDKESKDKFNKIPAEKKLIVTSEGAFKYFSKAYGVPSAYIWEINTEEEGTPEQIKTLVEKLRQTKVPSLFVESSVDDRPMKTVSQDTNIPIYAQIFTDSIAEQGKEGDSYYSMMKYNLDKIAEGLAK
# Assays:
# Format in all cases: cell-based, human
# Detroit 562 cells [1] = assay: Homologous competitive inhibition of adherence of rPsaA- or peptide-coated fluospheres to Detroit 562 cells; conditions: for percent reduction in adherence of P4-coated beads: ~1,640 beads per well
# Procedure: (§1) Carboxylate-modified fluorospheres (Molecular Probes™, […]) coated with either recombinant PsaA (rPsaA) or PsaA synthetic peptide (P4) were evaluated for their adherence to Detroit 562 NP cells. Four different batches of PsaA beads were generated by varying the concentration of the protein solution used to coat the beads (0.9 mg/ml, 0.53 mg/ml, 5.3 μg/ml and 0.53 μg/ml). P4 and Glycine control beads were generated by using a peptide solution (0.9 mg/ml). Protein concentrations were confirmed by the Bradford test (Sigma). PsaA and peptide beads were compared at similar inocula (1640±210 beads per well) in adherence and adherence competition assays (measured as mean fluorescent units (FU±SE)).
# (§2) Homologous competitive inhibitions with 0.5 to 10 μg per well of rPsaA protein or 5 to 20 μg per well of each peptide were performed to determine the specificity of the adherence for rPsaA-coated fluospheres or for each of the three peptide-coated fluospheres. Heterologous competitive inhibitions with each peptide (10 μg per well) were performed to determine which peptide blocked the adherence of whole PsaA-coated fluospheres to the Detroit 562 cells. Absorption of PsaA-specific antibodies was performed by incubation (2 hours at ambient room temperature with rotation, 100 rpm) of 500 μl (1:8 dilution) of the serum 7051 with nitrocellulose strips (2.5×0.5 cm), previously impregnated with rPsaA protein (1.8 mg/ml) and allowed to dry at 37° C. for 1 hour. Strips were replaced every 2 hours for a total of 3 changes. All antibody absorptions were performed in PBS (10 mM, pH 7.2) supplemented with 1% (weight/volume) BSA as a non-specific blocker. Immunoglobulin G (IgG) concentrations (μg/ml) were measured as previously described (Tharpe, Romero-Steiner) after each absorption step to monitor the decline of anti-PsaA antibodies.
# Detroit 562 cells [2] = assay: Competitive inhibition of adherence of rPsaA-coated fluospheres to Detroit 562 cells; conditions: competitor 100 μg (so in the source)
# Detroit 562 cells [3] = assay: Adherence of rPsaA- or peptide-coated fluospheres (beads) to Detroit 562 cells; conditions: for mean adherence of coated fluospheres (mean FU±SE): 3,100±500 fluospheres per well, 2 hour incubation; for mean adherence signal (n=6): 2600 fluospheres/well; for mean adherence (% CV): batch 6, dilution 1:100, 2,600 fluospheres
# Procedure: as §1
# Recombinant PsaA protein or synthetic peptides were covalently bound to carboxylate-modified FluoSpheres (Molecular Probes, Eugene, Oreg.) (505/515 nm range, yellow, 1 μm in diameter). […] The 2% fluosphere stock was vortexed for 2 minutes at full speed. A 250-μl aliquot was sonicated for 5 minutes to break clumps. The sonicated fluospheres were washed 3 times by centrifugation at 10,000 rpm for 10 minutes in 250 μl MES buffer, pH 6.0 (Molecular Probes). The negative charge in the carboxylate-modified fluospheres was activated by adding 50 μl of EDAC solution (100 mg/ml, Molecular Probes) to the washed fluospheres resuspended in 200 μl MES. The fluospheres were incubated for 30 minutes RT with gentle rotation. A 250-μl volume of rPsaA (1 mg/ml) or peptide (2 mg/ml) resuspended in MES buffer was added to each fluosphere pellet. Suboptimal concentrations of rPsaA (900, 530, 5.3 and 0.53 μg/ml) were also used to generate partially coated fluospheres. Peptides were dissolved as 1 mg in 50 μl of 10% acetic acid followed by addition of 450 μl of MES buffer, pH 6.0. The 500-μl fluosphere suspension was incubated in the dark over night at room temperature with horizontal rotation (150 rpm). The remaining reactive sites were blocked by addition of a 50-μl volume of 1 M solution of glycine, followed by a-30-minute incubation at room temperature with horizontal rotation. The fluosphere suspension was then washed with 500 μl PBS, 50 mM, pH 7.2-7.4 three times by centrifugation at 10,000 rpm for 10 minutes. The first supernatant of the first wash was saved for protein determinations using the microtiter microdilution method of Bradford (Bio-Rad Laboratories, Calif.). The labeled fluosphere pellet was resuspended in 500 μl of PBS, 50 mM, pH 7.2-7.4. Labeled fluospheres were stored in the dark in 100-μl aliquots at 4° C. for up to 4 months. The peptides were stored in powder form at 4° C. under Dryerite desiccant. The resuspended peptides were stored at 4° C. for 6 weeks and for long term storage at −70° C. Fluospheres were counted by limiting dilution using a fluorometer (FLX-600, BioTek) with 485/520 nm excitation/emission wavelength and comparison to a calibration curve previously generated against hemacytometer counts.
# Confluent monolayers of Detroit 562 cells grown in 96-well tissue culture plates for 6 days were washed once with 130 μl/well of PBS buffer+0.5% BSA (Sigma cat #A2153, Fraction V purified by alcohol precipitation). The entire outer perimeter of the microtiter plate was not used for adherence assays due to edge effect and lack of confluent growth in these wells. An 80-μl volume per well of PBS buffer+1% BSA and 20 μl per well of diluted fluosphere suspension (to yield ˜3100±500 fluospheres in a 20-μl volume) were added to the washed monolayers. The diluted fluosphere suspension was sonicated for 3 minutes prior to addition to the center of the wells. […] The sides of the plates were then tapped gently to mix. […] Following incubation, plates were washed 5 times with 130 μL/well of PBS+0.5% BSA. The liquid was removed after each wash with a multi-channel aspirator (Costar) and moderate vacuum. The plate was allowed to dry before reading in the fluorometer (485/520 nm). […]
# Detroit 562 cells [4] = assay: Competitive inhibition of adherence of rPsaA-coated fluospheres to Detroit 562 cells; conditions: for percent reduction in adherence of rPsaA-coated beads: rPsaA-coated beads 0.9 mg/ml batch, ~1,640 beads per well
# Procedure: as §1, §2
# [5] = homologous competitor 5.0 μg/well
# [6] = homologous competitor 10 μg/well
molecule,measurement,setting,value
"LFVESSVKRRPMKTVSQDTNIPIYAQIF [P4, non-branched synthetic peptide, PsaA amino acid residues 251 to 278 with DD changed to KR]",percent reduction in adherence of P4-coated beads,Detroit 562 cells [1]; competitor 5.0 μg/well,89% and 89.4%
same,percent reduction in adherence of P4-coated beads,Detroit 562 cells [1]; competitor 10 μg/well,88% and 87.6%
same,percent reduction in adherence of P4-coated beads,Detroit 562 cells [1]; competitor 20 μg/well,89% and 88.9%
same,percent reduction in adherence of homologous coated fluospheres,Detroit 562 cells [1]; [5],89.4%
same,percent reduction in adherence of homologous coated fluospheres,Detroit 562 cells [1]; [6],87.6%
same,percent reduction in adherence of homologous coated fluospheres,Detroit 562 cells [1]; homologous competitor 20 μg/well,88.9%
same,reduction in FU of PsaA-coated beads,Detroit 562 cells [2],68%
same,mean adherence of coated fluospheres (mean FU±SE),Detroit 562 cells [3],"20,317±448 FU"
same,adherence of P4-coated beads (FU±SE),"Detroit 562 cells [3]; beads coated with 0.9 mg/ml peptide solution, 1640±210 beads per well","19,340 FU"
same,inhibition of the binding of PsaA protein to Detroit 562 cells,Detroit 562 cells [4],≥ 95%
same,percent reduction in adherence of rPsaA-coated beads,Detroit 562 cells [4]; competitor 5.0 μg/well,23% and 18.5%
same,percent reduction in adherence of rPsaA-coated beads,Detroit 562 cells [4]; competitor 10 μg/well,57.6%
same,percent reduction in adherence of rPsaA-coated beads,Detroit 562 cells [4]; competitor 20 μg/well,95% and 95.9%
same,"inhibition of rPsaA-fluosphere adherence, heterologous competition",Detroit 562 cells [4]; peptide 10 μg/well,57.6%
same,"inhibition of rPsaA-fluosphere adherence, heterologous competition",Detroit 562 cells [4]; peptide 20 μg/well (6.2×10^−2 mM),95.9%
B1,reduction of adherence of rPsaA fluospheres by whole recombinant protein,Detroit 562 cells [1]; 0.5 to 10 μg/well,unable to significantly reduce
same,reduction of adherence of rPsaA-coated fluospheres,Detroit 562 cells [1]; additional concentrations 0.125 to 10.0 μg/well vs 3 μg/well,did not result in any further reduction
same,percent reduction in adherence of homologous coated fluospheres,Detroit 562 cells [1]; homologous competitor 0.5 μg/well,−5.2%
same,percent reduction in adherence of homologous coated fluospheres,Detroit 562 cells [1]; homologous competitor 1.0 μg/well,9.8%
same,percent reduction in adherence of homologous coated fluospheres,Detroit 562 cells [1]; homologous competitor 2.0 μg/well,17.0%
same,percent reduction in adherence of homologous coated fluospheres,Detroit 562 cells [1]; [5],13.7%
same,percent reduction in adherence of homologous coated fluospheres,Detroit 562 cells [1]; [6],11.4%
same,mean adherence signal (n=6),Detroit 562 cells [3]; 20 min incubation,"2,315 FU"
same,mean adherence signal (n=6),Detroit 562 cells [3]; 140 min incubation (plateau starts),"16,597 FU"
same,mean adherence signal (n=6),Detroit 562 cells [3]; 180 min incubation,"17,498 FU"
same,mean adherence of coated fluospheres (mean FU±SE),Detroit 562 cells [3],"44,195±2,648 FU"
same,mean adherence (% CV),Detroit 562 cells [3]; day 1 after labeling,"30,105 FU"
same,mean adherence (% CV),Detroit 562 cells [3]; day 60 after labeling,"30,595 FU"
same,adherence of PsaA beads (FU±SE),"Detroit 562 cells [3]; beads coated with 0.53 μg/ml rPsaA, 1640±210 beads per well","5,892 FU"
same,adherence of PsaA beads (FU±SE),"Detroit 562 cells [3]; beads coated with 5.3 μg/ml rPsaA, 1640±210 beads per well","12,788 FU"
same,adherence of PsaA beads (FU±SE),"Detroit 562 cells [3]; beads coated with 0.53 mg/ml rPsaA, 1640±210 beads per well","16,748 FU"
same,adherence of PsaA beads (FU±SE),"Detroit 562 cells [3]; beads coated with 0.9 mg/ml rPsaA, 1640±210 beads per well","47,875 FU"
same,"inhibition of the adherence of PsaA-coated fluospheres, cold chase",Detroit 562 cells [4]; non-fluorescent spheres coated with PsaA protein,up to 31%

# — patent US7919104B2, “Functional epitopes of Streptococcus pneumoniae PsaA antigen and uses thereof” (priority 2005, dated 2011)
